# Laboratory results taken from article PMC4507774, “Arabidopsis seed-specific vacuolar aquaporins are involved in maintaining seed longevity under the control of ABSCISIC ACID INSENSITIVE 3”.
# T1: ABI3-B3 (partial ABI3, B3 domain) (UniProt Q01593 559-720)
# T1 sequence: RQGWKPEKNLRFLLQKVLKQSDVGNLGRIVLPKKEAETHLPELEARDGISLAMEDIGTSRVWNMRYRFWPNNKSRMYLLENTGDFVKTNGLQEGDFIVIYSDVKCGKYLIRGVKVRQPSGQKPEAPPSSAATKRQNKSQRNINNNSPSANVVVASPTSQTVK
# B1: 31RY2-mu (dsDNA)
# DNA 1: ATCTACTTGGCACAGCGCTAGCCTTAGTCAACACA
# DNA 2: TGTGTTGACTAAGGCTAGCGCTGTGCCAAGTAGAT
# B2: 31RY2-bio (TIP3;1 promoter RY2) (dsDNA)
# DNA 1: ATCTACTTGGCACACATGCATGCTTAGTCAACACA
# DNA 2: TGTGTTGACTAAGCATGCATGTGTGCCAAGTAGAT
# B3: 31RY2-cold (dsDNA)
# DNA 1: B2 DNA 1
# DNA 2: B2 DNA 2
# B4: 32RY-mu (dsDNA)
# DNA 1: CTTGATCCACTTGGCACAGCGTACTAGATATATAGTCACAGC
# DNA 2: GCTGTGACTATATATCTAGTACGCTGTGCCAAGTGGATCAAG
# B5: 32RY-bio (TIP3;2 promoter RY) (dsDNA)
# DNA 1: CTTGATCCACTTGGCACACATGCATAGATATATAGTCACAGC
# DNA 2: GCTGTGACTATATATCTATGCATGTGTGCCAAGTGGATCAAG
# B6: 32RY-cold (dsDNA)
# DNA 1: B5 DNA 1
# DNA 2: B5 DNA 2
# How the values were obtained:
# [1] = biological target: T1, ABI3-B3 (partial ABI3, B3 domain); test: competition; 40- or 200-fold unlabelled competitor vs 31RY2-bio; EMSA: 1x LightShift binding buffer, 2.5% glycerol, 50 ng/ul poly(dI-dC), 50 mM KCl, 0.5 mM EDTA, 20 C, 30 min; pH not stated; settings: protein: recombinant; tags: His (pET28a, Ni-NTA); blunt
# [2] = biological target: T1, ABI3-B3 (partial ABI3, B3 domain); test: EMSA; EMSA: 1x LightShift binding buffer, 2.5% glycerol, 50 ng/ul poly(dI-dC), 50 mM KCl, 0.5 mM EDTA, 20 C, 30 min; pH not stated; settings: protein: recombinant; tags: His (pET28a, Ni-NTA); label: biotin; blunt
# [3] = biological target: T1, ABI3-B3 (partial ABI3, B3 domain); test: competition; 40- or 200-fold unlabelled competitor vs 32RY-bio; EMSA: 1x LightShift binding buffer, 2.5% glycerol, 50 ng/ul poly(dI-dC), 50 mM KCl, 0.5 mM EDTA, 20 C, 30 min; pH not stated; settings: protein: recombinant; tags: His (pET28a, Ni-NTA); blunt
Binder,binding result [1],binding result [2],binding result [3]
B1,no binding,–,–
B2,–,binds,–
B3,binds,–,–
B4,–,–,no binding
B5,–,binds,–
B6,–,–,binds
